The test deals with PYE-GFP (Arabidopsis) (UniProt Q9SN74). Kind of test: FRET or BRET; FRET-APB (acceptor photobleaching) in nuclei of transiently transformed tobacco leaf epidermis cells; GFP donor, mCherry acceptor; ß-estradiol-induced; n = 15 nuclei; negative control donor only. In general terms: Bioluminescence resonance energy transfer reports proximity on the nanometre scale.
Chain of UniProt Q9SN74 (Q9SN74 whole entry): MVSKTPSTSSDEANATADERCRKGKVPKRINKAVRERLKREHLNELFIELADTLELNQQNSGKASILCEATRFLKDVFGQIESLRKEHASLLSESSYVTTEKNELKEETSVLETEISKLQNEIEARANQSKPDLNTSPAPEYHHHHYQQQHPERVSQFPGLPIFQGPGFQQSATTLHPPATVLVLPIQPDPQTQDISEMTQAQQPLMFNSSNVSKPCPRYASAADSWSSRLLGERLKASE

OLV-mCherry (natural protein): the FRET efficiency is 3.5%.

Source of the values: article PMC11020826.
